According to US20240116985A1 (published 2024):
Starred links: 1 amine or outer side, 2 acyl side, 3 side chain; linkers in the order of their positions; H or OH if unused. Positions of bridges follow the written chain, without caps; N, C: chain ends. Non-standard residues stand in square brackets, D forms with d. Primed or numbered codes have the meaning given here. (Pfbn)GAbu = (S)-2-amino-4-((carboxymethyl)((perfluorophenyl)methyl)amino)butanoic acid, O=C([C@H](CCN(CC(=O)[*:3])Cc1c(F)c(F)c(F)c(F)c1F)N[*:1])[*:2]; PyrS2(3) = (S)-3-amino-1-((pent-4-en-1-yloxy)carbonyl)pyrrolidine-3-carboxylic acid, stapling residue, C=CCCCOC(=O)N1CC[C@@](N[*:1])(C(=O)[*:2])C1; PyrS2″ = (S)-3-amino-1-((pent-4-en-1-yloxy)carbonyl)pyrrolidine-3-carboxylic acid (stapling residue), C=CCCCOC(=O)N1CC[C@@](N[*:1])(C(=O)[*:2])C1; (Tfb)GAbu = (S)-2-amino-4-((carboxymethyl)(4,4,4-trifluorobutyl)amino)butanoic acid, O=C([C@H](CCN(CCCC(F)(F)F)CC(=O)[*:3])N[*:1])[*:2]; (Tfp)GAbu = (S)-2-amino-4-((carboxymethyl)(3,3,3-trifluoropropyl)amino)butanoic acid, O=C([C@H](CCN(CCC(F)(F)F)CC(=O)[*:3])N[*:1])[*:2]; B5(23) = 2-amino-2-(pent-4-en-1-yl)hept-6-enoic acid (2,2-bis(4-pentenyl)glycine), stitching residue, C=CCCCC(CCCC=C)(N[*:1])C(=O)[*:2]; B5(4) = 2,2-bis(4-pentenyl)glycine = 2-amino-2-(pent-4-en-1-yl)hept-6-enoic acid (stitching residue), C=CCCCC(CCCC=C)(N[*:1])C(=O)[*:2]; B5(5) = 2,2-bis(4-pentenyl)glycine, 2-amino-2-(pent-4-en-1-yl)hept-6-enoic acid (stitching residue), C=CCCCC(CCCC=C)(N[*:1])C(=O)[*:2]; PyrS″ = (S)-1-((allyloxy)carbonyl)-3-aminopyrrolidine-3-carboxylic acid (stapling residue), C=CCOC(=O)N1CC[C@@](N[*:1])(C(=O)[*:2])C1; TfeGA = (S)-2-amino-3-((carboxymethyl)(2,2,2-trifluoroethyl)amino)propanoic acid, O=C([C@H](CN(CC(=O)[*:3])CC(F)(F)F)N[*:1])[*:2]; PyrS1 = (S)-3-amino-1-((but-3-en-1-yloxy)carbonyl)pyrrolidine-3-carboxylic acid, C=CCCOC(=O)N1CC[C@@](N[*:1])(C(=O)[*:2])C1; (Bn)GAbu = (S)-2-amino-4-(benzyl(carboxymethyl)amino)butanoic acid, O=C([C@H](CCN(CC(=O)[*:3])Cc1ccccc1)N[*:1])[*:2]; PyrS = (S)-1-((allyloxy)carbonyl)-3-aminopyrrolidine-3-carboxylic acid, C=CCOC(=O)N1CC[C@@](N[*:1])(C(=O)[*:2])C1; B5(19) = 2-amino-2-(pent-4-en-1-yl)hept-6-enoic acid (bis(4-pentenyl)glycine), C=CCCCC(CCCC=C)(N[*:1])C(=O)[*:2]; (Et)GAbu = (S)-2-amino-4-((carboxymethyl)(ethyl)amino)butanoic acid, CCN(CC[C@H](N[*:1])C(=O)[*:2])CC(=O)[*:3]; Phe(4-tetrazol-5-yl) = N[C@@H](Cc1ccc(-c2nnn[nH]2)cc1)C(=O)O; Phe(2-Cl) = N[C@@H](Cc1ccccc1Cl)C(=O)O; Bta = N[C@@H](Cc1csc2ccccc12)C(=O)O; Lys(iPr) = CC(C)NCCCC[C@H](N)C(=O)O; αAllylPro = C=CC[C@@]1(C(=O)O)CCCN1; tBuAla = CC(C)(C)C[C@H](N)C(=O)O; 3Thi = N[C@@H](Cc1ccsc1)C(=O)O; Cha = N[C@@H](CC1CCCCC1)C(=O)O

B1: I-2448 (peptide)
peptide: Ac-[αAllylPro]N[Cha][B5(4)]DT[Lys(iPr)]AFL[PyrS2″]F[Bta]Q-NH2
modifications: staple 1-4, 4-11
B2: I-2446 (peptide)
peptide: Ac-[αAllylPro]N[Cha][B5(5)]DQ[Lys(iPr)]AFL[PyrS2″][3Thi][Bta]Q-NH2
modifications: staple 1-4, 4-11; not fully specified; printed as Ac-PL3-Asn-Cha-B5-Asp-Gln-iPrLys-Ala-Phe-Leu-PyrS2-3Thi-BztA-Gln-NH2
B3: I-1579 (peptide)
peptide: Ac-[αAllylPro]D[tBuAla][B5(23)]D[Phe(4-tetrazol-5-yl)]AAFN[PyrS2(3)][3Thi][Bta]Q-NH2
modifications: staple 1-4, 4-11
B4: I-1837 (peptide)
peptide: Ac-[αAllylPro]D[tBuAla][B5(4)]D[(Tfb)GAbu]AAFL[PyrS2″][3Thi][Bta]Q-NH2
modifications: staple 1-4, 4-11
B5: I-1834 (peptide)
peptide: Ac-[αAllylPro]D[tBuAla][B5(4)]D[(Bn)GAbu]AAFL[PyrS2″][3Thi][Bta]Q-NH2
modifications: staple 1-4, 4-11
B6: I-1833 (peptide)
peptide: Ac-[αAllylPro]D[tBuAla][B5(4)]D[TfeGA]AAFL[PyrS2″][Phe(2-Cl)][Bta]Q-NH2
modifications: staple 1-4, 4-11
B7: I-1839 (peptide)
peptide: Ac-[αAllylPro]D[tBuAla][B5(4)]D[(Tfp)GAbu]AAFL[PyrS2″][3Thi][Bta]Q-NH2
modifications: staple 1-4, 4-11
B8: I-1835 (peptide)
peptide: Ac-[αAllylPro]D[tBuAla][B5(4)]D[(Et)GAbu]AAFL[PyrS2″][3Thi][Bta]Q-NH2
modifications: staple 1-4, 4-11
B9: I-1838 (peptide)
peptide: Ac-[αAllylPro]D[tBuAla][B5(4)]D[(Pfbn)GAbu]AAFL[PyrS2″][3Thi][Bta]Q-NH2
modifications: staple 1-4, 4-11
B10: I-1818 (peptide)
peptide: Ac-[αAllylPro]D[tBuAla][B5(19)]DDAAFL[PyrS][3Thi][Bta]Q-NH2
modifications: staple 1-4, 4-11
B11: I-1823 (peptide)
peptide: Ac-[αAllylPro]D[tBuAla][B5(19)]DDAAFN[PyrS][3Thi][Bta]Q-NH2
modifications: staple 1-4, 4-11; also: staple olefins reduced to CH2-CH2
B12: I-1824 (peptide)
peptide: Ac-[αAllylPro]D[tBuAla][B5(4)]DDAAFL[PyrS″][3Thi][Bta]Q-NH2
modifications: staple 1-4, 4-11; also: staple -CH=CH- reduced to -CH2-CH2- in both staples
B13: I-1822 (peptide)
peptide: Ac-[αAllylPro]D[tBuAla][B5(19)]DDAAFL[PyrS1][3Thi][Bta]Q-NH2
modifications: staple 1-4, 4-11; also: staple olefins reduced to CH2-CH2

These binders were tested against T1, B-cat-Halo (beta-catenin HaloTag fusion expressed in HEK293 cells) (Homo sapiens (Human), UniProt P35222 1-781) (assay: cell-based or functional assay).
T1 sequence: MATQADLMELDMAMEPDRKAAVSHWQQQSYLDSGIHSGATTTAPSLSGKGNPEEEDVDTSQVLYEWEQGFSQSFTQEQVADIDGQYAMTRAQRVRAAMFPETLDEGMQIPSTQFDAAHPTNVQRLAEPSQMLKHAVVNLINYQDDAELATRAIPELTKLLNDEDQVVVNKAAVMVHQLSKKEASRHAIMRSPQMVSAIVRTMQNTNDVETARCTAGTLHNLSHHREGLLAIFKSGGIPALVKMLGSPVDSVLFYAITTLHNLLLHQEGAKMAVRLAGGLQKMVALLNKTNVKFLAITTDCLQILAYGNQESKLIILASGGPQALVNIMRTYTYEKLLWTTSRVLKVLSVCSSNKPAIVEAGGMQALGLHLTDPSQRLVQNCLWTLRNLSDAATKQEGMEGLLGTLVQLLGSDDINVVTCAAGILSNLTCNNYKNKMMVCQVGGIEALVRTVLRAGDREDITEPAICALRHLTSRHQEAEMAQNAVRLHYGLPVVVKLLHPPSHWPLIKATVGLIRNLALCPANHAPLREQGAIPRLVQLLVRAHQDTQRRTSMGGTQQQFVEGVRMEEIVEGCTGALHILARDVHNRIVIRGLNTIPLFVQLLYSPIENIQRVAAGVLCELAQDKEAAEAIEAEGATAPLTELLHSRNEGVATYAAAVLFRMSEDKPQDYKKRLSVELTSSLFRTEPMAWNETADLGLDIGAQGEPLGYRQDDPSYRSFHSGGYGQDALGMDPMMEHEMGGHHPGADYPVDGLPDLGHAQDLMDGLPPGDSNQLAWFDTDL

B1 and B2 cannot be ordered by “NanoBRET Abs IC50” value: > 20 µM for the first, > 20 µM for the second.

These binders were tested against T2, B-cat-Halo (UniProt P35222 1-781) (assay: cell-based or functional assay).
T2 sequence (looked up): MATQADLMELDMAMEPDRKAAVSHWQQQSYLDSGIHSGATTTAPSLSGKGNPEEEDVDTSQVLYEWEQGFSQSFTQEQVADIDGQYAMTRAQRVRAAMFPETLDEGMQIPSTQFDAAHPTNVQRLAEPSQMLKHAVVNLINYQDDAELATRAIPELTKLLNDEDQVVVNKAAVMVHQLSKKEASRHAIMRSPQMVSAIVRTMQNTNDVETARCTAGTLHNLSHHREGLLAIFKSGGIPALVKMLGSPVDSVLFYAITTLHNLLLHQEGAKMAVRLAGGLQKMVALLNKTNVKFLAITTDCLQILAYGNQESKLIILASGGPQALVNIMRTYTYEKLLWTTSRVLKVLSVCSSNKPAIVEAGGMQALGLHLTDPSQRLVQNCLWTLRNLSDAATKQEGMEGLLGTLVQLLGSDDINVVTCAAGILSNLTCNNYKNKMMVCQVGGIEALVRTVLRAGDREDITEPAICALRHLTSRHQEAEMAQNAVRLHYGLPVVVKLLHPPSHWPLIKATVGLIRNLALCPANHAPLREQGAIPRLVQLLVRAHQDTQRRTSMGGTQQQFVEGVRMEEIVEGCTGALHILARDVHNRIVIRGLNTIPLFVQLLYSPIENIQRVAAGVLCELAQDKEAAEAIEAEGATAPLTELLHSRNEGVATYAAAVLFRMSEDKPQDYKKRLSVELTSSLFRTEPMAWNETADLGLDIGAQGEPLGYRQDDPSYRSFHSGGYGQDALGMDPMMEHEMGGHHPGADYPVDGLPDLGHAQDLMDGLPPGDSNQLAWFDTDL

For B3, the “NanoBRET Abs IC50” value was > 20 µM.

What follows are binders tested against T3, B-cat-Halo (beta-catenin HaloTag construct expressed in HEK293 cells) (UniProt P35222 1-781) (assay: cell-based or functional assay).
T3 sequence (looked up): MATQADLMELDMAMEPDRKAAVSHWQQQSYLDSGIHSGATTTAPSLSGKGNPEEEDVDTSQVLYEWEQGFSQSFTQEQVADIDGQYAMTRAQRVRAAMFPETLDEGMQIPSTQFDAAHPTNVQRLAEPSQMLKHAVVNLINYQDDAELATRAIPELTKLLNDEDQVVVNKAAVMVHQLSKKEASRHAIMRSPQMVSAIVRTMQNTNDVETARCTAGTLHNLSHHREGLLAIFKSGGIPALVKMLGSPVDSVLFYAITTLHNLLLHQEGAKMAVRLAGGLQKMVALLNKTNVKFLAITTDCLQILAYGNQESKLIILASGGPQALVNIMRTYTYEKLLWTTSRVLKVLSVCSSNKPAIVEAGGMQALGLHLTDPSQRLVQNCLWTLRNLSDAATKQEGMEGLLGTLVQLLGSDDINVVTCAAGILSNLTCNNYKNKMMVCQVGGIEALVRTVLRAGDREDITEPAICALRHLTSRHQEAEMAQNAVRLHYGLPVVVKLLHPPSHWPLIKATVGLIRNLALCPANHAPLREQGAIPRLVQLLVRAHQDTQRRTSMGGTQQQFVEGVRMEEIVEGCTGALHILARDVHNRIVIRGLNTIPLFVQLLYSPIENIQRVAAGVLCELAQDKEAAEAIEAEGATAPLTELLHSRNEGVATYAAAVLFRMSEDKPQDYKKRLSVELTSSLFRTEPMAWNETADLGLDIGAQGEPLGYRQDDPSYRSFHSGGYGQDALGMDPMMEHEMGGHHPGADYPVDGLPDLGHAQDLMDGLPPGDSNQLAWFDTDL

B4 and B5 are within 1.5-fold of each other in “NanoBRET Abs IC50” value: 18.5 µM for the first, 18.8 µM for the second.

Going from B6 to B7, the “NanoBRET Abs IC50” value rises from 6.9 µM to 14.6 µM (2.1-fold).

First: B8
Second: B9
The “NanoBRET Abs IC50” value of the first is 4-fold higher: 31.9 µM for the first, 7.9 µM for the second.

B10 and B11 cannot be ordered by “NanoBRET Abs IC50” value: > 20 µM for the first, > 20 µM for the second.

B12 and B13 cannot be ordered by “NanoBRET Abs IC50” value: > 20 µM for the first, > 20 µM for the second.
